The values below come from publication doi:10.1101/2021.11.23.469668 (bioRxiv, 2021).

Holding throughout (assay): SEC
(SEC sorts molecules by how far they enter the pores of the column.)

The target of data set [1] is Atlas GC GPL binding pocket mutant R86A (Ancylostoma ceylanicum (endogenous retrovirus Atlas virus)).
The target in data set [2] is Atlas GC fusion loop mutant F136A/F137A (Ancylostoma ceylanicum (endogenous retrovirus Atlas virus)).
The data set “SEC” concerns the molecule itself.

As a reminder, the stoichiometry N is the number of molecules, sites or subunits per partner or assembly. Molecule “Atlas GC GPL binding pocket mutant R86A (domain or fragment)” registered a stoichiometry N in data set [1] of 3. In turn, “Atlas GC fusion loop mutant F136A/F137A (domain or fragment)” returned a stoichiometry N in data set [2] of 3.

B1: Atlas virus GC ectodomain fragment (polyprotein residues 2330-2772) (domain or fragment)
chain: CSEVISVTSTEEVCTIQENKETCTFNHATTITLQPLQQQTCLTLNDPEKRPMGMLTVKPDGIKFRCNKKIEFFTRDHQIVSESVHRCHRAGSCHSDECHHVKDTDALPEFSSEANSRPGYTSCSSSCGCITCDGCFFCEPSCLFHRLYAIPTTPTIYSIFYCPSWELEVDAEISLQREDETTTSTIRLLPGRTSTWNNIRFSLIGTIVPQLPILSSAFVTNGRQTSIVKPAYAGQLQSNSVGQLQCPNLEAAKQFECHFSRNLCTCTNALHKVSCTCYDGSVEDHMEALPLPQTSKNFLVFEKDRNIYAKTHVGSALQLHIVAQDLKITTVKHTSHCQVEASDLSGCYSCTSGASLTLSCKSDNGEVLANMKCNEQTHVIRCTESGFINNILLMFDTSEVAADCTAACPGGIVNFTIKGLLAFVNERIISQSYSATDVERNIK
modifications: N-linked glycan at Asn414 (GC numbering)
As for B1, the “stoichiometry N” value in “SEC” was 3.
